Source: patent US20230067960A1 (VONSUN PHARMATECH, published 2023)
Non-standard residues stand in square brackets, D forms with d. No end group written: not given here. R1 = not defined here; R2 = not defined here; Aib = CC(C)(N)C(=O)O

target: glucagon receptor; experiment: cell-based or functional assay

Going from H[Aib]QGTFTSDLSRALEK(R2)IAARLFIEWLIEGGPSSGAPPPS-NH2 (reading uncertain) [triple agonist peptide of SEQ ID NO: 14, chemically modified with R2 side chain] to H[Aib]QGTFTSDLSRAMEKIAVRLFIEWLREGGPSSGAPPPS (ends and bridges not checked) [triple agonist peptide of SEQ ID NO: 1], the “In vitro activity relative to native polypeptide (%), relative to GCG (cAMP HTRF, from EC50)” value rises from 0.49% to 1.33%.

Going from H[Aib]QGTFTSDLSRAMEKEAVRLFIEWLIEGGPSSGAPPPS (ends and bridges not checked) [triple agonist peptide of SEQ ID NO: 3] to H[Aib]QGTFTSDLSRYLEKEAVRLFIEWLIDGGPSSGAPPPS (ends and bridges not checked) [triple agonist peptide of SEQ ID NO: 10], the “In vitro activity relative to native polypeptide (%), relative to GCG (cAMP HTRF, from EC50)” value rises from 12.2% to 21.8%.

First: H[Aib]QGTFTSDLSRAMEKEAVRLFIEWLIDGGPSSGAPPPS (ends and bridges not checked) [triple agonist peptide of SEQ ID NO: 4]
Second: H[Aib]QGTFTSDLSRAMEK(R1)IAVRLFIEWLIEGGPSSGAPPPS-NH2 (reading uncertain) [triple agonist peptide of SEQ ID NO: 11, chemically modified with R1 side chain]
The “In vitro activity relative to native polypeptide (%), relative to GCG (cAMP HTRF, from EC50)” value of the first is lower: 2.17% for the first, 3.89% for the second.

Going from H[Aib]QGTFTSDLSRAMEKIAVRLFIEWLIEGGPSSGAPPPS (ends and bridges not checked) [triple agonist peptide of SEQ ID NO: 6] to H[Aib]QGTFTSDLSRAMEKEAVRLFIEWLREGGPSSGAPPPS (ends and bridges not checked) [triple agonist peptide of SEQ ID NO: 2], the “In vitro activity relative to native polypeptide (%), relative to GCG (cAMP HTRF, from EC50)” value rises from 0.89% to 25.1%.

First: H[Aib]QGTFTSDLSLEQEKIAVRLFIEWLREGGPSSGAPPPS (ends and bridges not checked) [triple agonist peptide of SEQ ID NO: 9]
Second: H[Aib]QGTFTSDLSRAMEK(R2)IAVRLFIEWLIEGGPSSGAPPPS-NH2 (reading uncertain) [triple agonist peptide of SEQ ID NO: 13, chemically modified with R2 side chain]
The “In vitro activity relative to native polypeptide (%), relative to GCG (cAMP HTRF, from EC50)” value of the first is higher: 20.1% for the first, 16.1% for the second.

Going from H[Aib]QGTFTSDLSAAMEKIAVRLFIEWLREGGPSSGAPPPS (ends and bridges not checked) [triple agonist peptide of SEQ ID NO: 5] to H[Aib]QGTFTSDLSLAQEKEAVRLFIEWLREGGPSSGAPPPS (ends and bridges not checked) [triple agonist peptide of SEQ ID NO: 8], the “In vitro activity relative to native polypeptide (%), relative to GCG (cAMP HTRF, from EC50)” value rises from 0.72% to 1.21%.

H[Aib]QGTFTSDLSRALEKIAARLFIEWLIEGGPSSGAPPPS (ends and bridges not checked) [triple agonist peptide of SEQ ID NO: 7] was tested, and the “In vitro activity relative to native polypeptide (%), relative to GCG (cAMP HTRF, from EC50)” value was 18.3%.

target: glucagon-like peptide-1 receptor; experiment: cell-based or functional assay

Compared with H[Aib]QGTFTSDLSRALEK(R2)IAARLFIEWLIEGGPSSGAPPPS-NH2 (reading uncertain) [triple agonist peptide of SEQ ID NO: 14, chemically modified with R2 side chain], H[Aib]QGTFTSDLSRAMEKIAVRLFIEWLREGGPSSGAPPPS (ends and bridges not checked) [triple agonist peptide of SEQ ID NO: 1] is higher in “In vitro activity relative to native polypeptide (%), relative to GLP-1 (cAMP HTRF, from EC50)” value: 57% for the first, 64.7% for the second.

First: H[Aib]QGTFTSDLSRAMEKEAVRLFIEWLIEGGPSSGAPPPS (ends and bridges not checked) [triple agonist peptide of SEQ ID NO: 3]
Second: H[Aib]QGTFTSDLSRYLEKEAVRLFIEWLIDGGPSSGAPPPS (ends and bridges not checked) [triple agonist peptide of SEQ ID NO: 10]
The “In vitro activity relative to native polypeptide (%), relative to GLP-1 (cAMP HTRF, from EC50)” value of the first is lower: 67.7% for the first, 71.6% for the second.

Going from H[Aib]QGTFTSDLSRAMEKEAVRLFIEWLIDGGPSSGAPPPS (ends and bridges not checked) [triple agonist peptide of SEQ ID NO: 4] to H[Aib]QGTFTSDLSRAMEK(R1)IAVRLFIEWLIEGGPSSGAPPPS-NH2 (reading uncertain) [triple agonist peptide of SEQ ID NO: 11, chemically modified with R1 side chain], the “In vitro activity relative to native polypeptide (%), relative to GLP-1 (cAMP HTRF, from EC50)” value rises from 71.4% to 191%.

Going from H[Aib]QGTFTSDLSRAMEKIAVRLFIEWLIEGGPSSGAPPPS (ends and bridges not checked) [triple agonist peptide of SEQ ID NO: 6] to H[Aib]QGTFTSDLSRAMEKEAVRLFIEWLREGGPSSGAPPPS (ends and bridges not checked) [triple agonist peptide of SEQ ID NO: 2], the “In vitro activity relative to native polypeptide (%), relative to GLP-1 (cAMP HTRF, from EC50)” value falls from 116% to 104%.

Going from H[Aib]QGTFTSDLSLEQEKIAVRLFIEWLREGGPSSGAPPPS (ends and bridges not checked) [triple agonist peptide of SEQ ID NO: 9] to H[Aib]QGTFTSDLSRAMEK(R2)IAVRLFIEWLIEGGPSSGAPPPS-NH2 (reading uncertain) [triple agonist peptide of SEQ ID NO: 13, chemically modified with R2 side chain], the “In vitro activity relative to native polypeptide (%), relative to GLP-1 (cAMP HTRF, from EC50)” value rises from 136% to 217%.

Compared with H[Aib]QGTFTSDLSAAMEKIAVRLFIEWLREGGPSSGAPPPS (ends and bridges not checked) [triple agonist peptide of SEQ ID NO: 5], H[Aib]QGTFTSDLSLAQEKEAVRLFIEWLREGGPSSGAPPPS (ends and bridges not checked) [triple agonist peptide of SEQ ID NO: 8] is higher in “In vitro activity relative to native polypeptide (%), relative to GLP-1 (cAMP HTRF, from EC50)” value: 38.4% for the first, 123% for the second.

In the case of H[Aib]QGTFTSDLSRALEKIAARLFIEWLIEGGPSSGAPPPS (ends and bridges not checked) [triple agonist peptide of SEQ ID NO: 7], the “In vitro activity relative to native polypeptide (%), relative to GLP-1 (cAMP HTRF, from EC50)” value is reported as 47.5%.

target: T1, gastric inhibitory peptide receptor; experiment: cell-based or functional assay
T1 sequence (P48546 whole entry, species assumed, looked up): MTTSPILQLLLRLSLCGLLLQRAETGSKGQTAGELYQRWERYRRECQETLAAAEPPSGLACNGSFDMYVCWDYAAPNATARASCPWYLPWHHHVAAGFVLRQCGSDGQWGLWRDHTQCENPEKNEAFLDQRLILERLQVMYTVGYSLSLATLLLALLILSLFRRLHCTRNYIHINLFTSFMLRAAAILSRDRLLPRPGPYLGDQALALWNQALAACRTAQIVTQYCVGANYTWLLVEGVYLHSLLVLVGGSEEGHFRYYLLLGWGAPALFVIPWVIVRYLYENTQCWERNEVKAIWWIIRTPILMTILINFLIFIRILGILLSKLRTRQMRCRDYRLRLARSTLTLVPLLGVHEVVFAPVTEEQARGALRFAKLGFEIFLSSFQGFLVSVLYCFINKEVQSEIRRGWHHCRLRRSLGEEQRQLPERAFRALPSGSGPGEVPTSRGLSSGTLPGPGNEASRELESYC

Going from H[Aib]QGTFTSDLSRALEK(R2)IAARLFIEWLIEGGPSSGAPPPS-NH2 (reading uncertain) [triple agonist peptide of SEQ ID NO: 14, chemically modified with R2 side chain] to H[Aib]QGTFTSDLSRAMEKIAVRLFIEWLREGGPSSGAPPPS (ends and bridges not checked) [triple agonist peptide of SEQ ID NO: 1], the “In vitro activity relative to native polypeptide (%), relative to GIP (cAMP HTRF, from EC50)” value rises from 3.38% to 3.99%.

First: H[Aib]QGTFTSDLSRAMEKEAVRLFIEWLIEGGPSSGAPPPS (ends and bridges not checked) [triple agonist peptide of SEQ ID NO: 3]
Second: H[Aib]QGTFTSDLSRYLEKEAVRLFIEWLIDGGPSSGAPPPS (ends and bridges not checked) [triple agonist peptide of SEQ ID NO: 10]
The “In vitro activity relative to native polypeptide (%), relative to GIP (cAMP HTRF, from EC50)” value of the first is lower: 12.1% for the first, 94.7% for the second.

First: H[Aib]QGTFTSDLSRAMEKEAVRLFIEWLIDGGPSSGAPPPS (ends and bridges not checked) [triple agonist peptide of SEQ ID NO: 4]
Second: H[Aib]QGTFTSDLSRAMEK(R1)IAVRLFIEWLIEGGPSSGAPPPS-NH2 (reading uncertain) [triple agonist peptide of SEQ ID NO: 11, chemically modified with R1 side chain]
The “In vitro activity relative to native polypeptide (%), relative to GIP (cAMP HTRF, from EC50)” value of the first is higher: 7.37% for the first, 2.53% for the second.

First: H[Aib]QGTFTSDLSRAMEKIAVRLFIEWLIEGGPSSGAPPPS (ends and bridges not checked) [triple agonist peptide of SEQ ID NO: 6]
Second: H[Aib]QGTFTSDLSRAMEKEAVRLFIEWLREGGPSSGAPPPS (ends and bridges not checked) [triple agonist peptide of SEQ ID NO: 2]
The “In vitro activity relative to native polypeptide (%), relative to GIP (cAMP HTRF, from EC50)” value of the first is lower: 3.27% for the first, 34% for the second.

Going from H[Aib]QGTFTSDLSLEQEKIAVRLFIEWLREGGPSSGAPPPS (ends and bridges not checked) [triple agonist peptide of SEQ ID NO: 9] to H[Aib]QGTFTSDLSRAMEK(R2)IAVRLFIEWLIEGGPSSGAPPPS-NH2 (reading uncertain) [triple agonist peptide of SEQ ID NO: 13, chemically modified with R2 side chain], the “In vitro activity relative to native polypeptide (%), relative to GIP (cAMP HTRF, from EC50)” value falls from 95.8% to 9.83%.

Compared with H[Aib]QGTFTSDLSAAMEKIAVRLFIEWLREGGPSSGAPPPS (ends and bridges not checked) [triple agonist peptide of SEQ ID NO: 5], H[Aib]QGTFTSDLSLAQEKEAVRLFIEWLREGGPSSGAPPPS (ends and bridges not checked) [triple agonist peptide of SEQ ID NO: 8] is higher in “In vitro activity relative to native polypeptide (%), relative to GIP (cAMP HTRF, from EC50)” value: 1.99% for the first, 2.02% for the second.

With H[Aib]QGTFTSDLSRALEKIAARLFIEWLIEGGPSSGAPPPS (ends and bridges not checked) [triple agonist peptide of SEQ ID NO: 7] the “In vitro activity relative to native polypeptide (%), relative to GIP (cAMP HTRF, from EC50)” value was 5.74%.
